Results reported in article PMC5499577 (Nucleic Acids Research, 2017).
Numbering of substitutions follows the chain as printed. Names and notes keep the numbering of the source. Where two headings read alike, the source gives them in different places.

B1: LI Int with the coiled-coil motif deleted, IntΔCC (Δ342-416) (enzyme, Listeria innocua (prophage), UniProt Q928V6 1-452, looked up)
chain: MKAAIYIRVSTQEQVENYSIQAQTEKLTALCRSKDWDVYDTFIDGGYSGSNMNRPALNEMLSKLHEIDAVVVYRLDRLSRSQKDTITLIEEYFLKNNVEFVSLSETLDTSSPFGRAMIGILSVFAQLERETIRDRMVMGKIKRIEAGLPLTTAKGRTFGYDVIDTKLYINEEEAKQLRLIYDIFEEEQSITFLQKRLKKLGFKVRTYNRYNNWLTNDLYCGYVSYKDKVHVKGIHEPIISEEQFYRVQEIFSRMGKNPNMNKESASLLNNLVVCSKCGLGFVHRRKDTVSRGKKYHYRYYSCKTYKHTHELEKCGNKIWRADKLEELIIDRVNNYSFASRNATVDFNSLEFREKQLYLKSLINKIYIDGEQVTIEWL
B2: LI Int isolated coiled-coil domain CC-III (349-400) (domain or fragment, Listeria innocua (prophage), UniProt Q928V6 349-400, looked up)
chain: DSLNEKLKIEHAKKKRLFDLYINGSYEVSELDSMMNDIDAQINYYEAQIEAN
B3: His6Flag-Smt3-CC-I fusion of the LI Int coiled-coil domain (345-405) (domain or fragment, Listeria innocua (prophage), UniProt Q928V6 345-405, looked up)
chain: EDELDSLNEKLKIEHAKKKRLFDLYINGSYEVSELDSMMNDIDAQINYYEAQIEANEELKK
B4: LI Int CTD Y369A (133-452) (domain or fragment, Listeria innocua (prophage), UniProt Q928V6 133-452, looked up)
chain: RDRMVMGKIKRIEAGLPLTTAKGRTFGYDVIDTKLYINEEEAKQLRLIYDIFEEEQSITFLQKRLKKLGFKVRTYNRYNNWLTNDLYCGYVSYKDKVHVKGIHEPIISEEQFYRVQEIFSRMGKNPNMNKESASLLNNLVVCSKCGLGFVHRRKDTVSRGKKYHYRYYSCKTYKHTHELEKCGNKIWRADKLEELIIDRVNNYSFASRNIDKEDELDSLNEKLKIEHAKKKRLFDLAINGSYEVSELDSMMNDIDAQINYYEAQIEANEELKKNKKIQENLADLATVDFNSLEFREKQLYLKSLINKIYIDGEQVTIEWL
B5: LI Int carboxy-terminal domain, CTD (133-452) (domain or fragment, Listeria innocua (prophage), UniProt Q928V6 133-452, looked up)
chain: B4 chain with A237Y
B6: LI Int CTD K362A (133-452) (domain or fragment, Listeria innocua (prophage), UniProt Q928V6 133-452, looked up)
chain: B4 chain with K230A, A237Y
B7: Listeria innocua integrase (LI Int), wild type, full length (enzyme, Listeria innocua (prophage), UniProt Q928V6 1-452, looked up)
chain: MKAAIYIRVSTQEQVENYSIQAQTEKLTALCRSKDWDVYDTFIDGGYSGSNMNRPALNEMLSKLHEIDAVVVYRLDRLSRSQKDTITLIEEYFLKNNVEFVSLSETLDTSSPFGRAMIGILSVFAQLERETIRDRMVMGKIKRIEAGLPLTTAKGRTFGYDVIDTKLYINEEEAKQLRLIYDIFEEEQSITFLQKRLKKLGFKVRTYNRYNNWLTNDLYCGYVSYKDKVHVKGIHEPIISEEQFYRVQEIFSRMGKNPNMNKESASLLNNLVVCSKCGLGFVHRRKDTVSRGKKYHYRYYSCKTYKHTHELEKCGNKIWRADKLEELIIDRVNNYSFASRNIDKEDELDSLNEKLKIEHAKKKRLFDLYINGSYEVSELDSMMNDIDAQINYYEAQIEANEELKKNKKIQENLADLATVDFNSLEFREKQLYLKSLINKIYIDGEQVTIEWL

Experiments:
[1] = biological target: the molecule itself; experiment: crystal structure
[2] = biological target: the molecule itself; experiment: AUC
[3] = biological target: the molecule itself; experiment: AUC; remark: listed apart in the source

Row | Protein | binding result [1] | Kd [2] | stoichiometry N [2] | Kd [3] | stoichiometry N [3]
1 | SLNEKLKIEHAKKKRLFDLYINGSYEVSELDSMMNDIDAQINYYEAQIEA (domain or fragment, Listeria innocua (prophage), UniProt Q928V6 350-399, looked up) [LI Int isolated coiled-coil domain CC-II (350-399)] | binds | – | – | – | –
2 | B1 | – | 5.7 µM | 2 | – | –
3 | B2 | binds | – | – | – | –
4 | B3 | – | – | – | 20.1 µM | 2
5 | B4 | – | 289 µM | 2 | – | –
6 | B5 | – | 18.8 µM | 2 | – | –
7 | B6 | – | 45.2 µM | 2 | – | –
8 | B7 | – | ≤ 0.032 µM | 2 | – | –
